According to the domain aggregation screens of Martell et al. (2025):

Experiment: soluble fraction after stress (log2 fold change); higher = more stays soluble; pooled small domains, quantitative proteomics
Conditions: stress: 50 degC
Outline: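 Pooled custom libraries of small protein domains were each held under stress at 50°C. The read-out, high-throughput quantitative proteomics, tracked how much of each protein stayed soluble. This is reported as a base-two log fold change used to indicate aggregation propensity. Higher values mean more protein remains in solution.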

| Sequence | soluble fraction (log2) |
| --- | --- |
| HMDRLTISTLGNGLFRVNGAEAEATVYNLSGNVVKVVPADEVIDLSSLAKGVYIIHVDGEAFKVI | -0.86 |
| HMDRMFQPETWSKIYQWVMNDPQVPDKEDVLALIRRHFGNFEKLIKLLHYLDGGKPYAYLSEH | -0.115 |
| HMDRSLYVGDAVGFDSARGLMEIEVKNKFSVVAVSLKKKPSGNFITPLLRMEKKKGEAVTVAPGSGHR | -0.33 |
| HMDRSQRDQEQAQLIRLVQQAFDDSGQRYGAEKIRITLAEGGIRVSTKRIAAIMQELDLRSI | -1.36 |
| HMDRSRAEIDLGHVETAIRTLAEGGMVQEYAIGGRSLKRYKMGELLQLKAELENEINMERRKEKMRQ | 0.197 |
| HMDRVDGWLHDGKLYLRVVDYKTGKKSFDLAELRYGLGLQMLLYLFTLKEEGQMLFGGHEIVPAGVL | -0.391 |
| HMDRVSEITLTRLRDYAADGQVRTATLTHRTNVVTGTLRDGRRFSAGVPPMYGDELTTFLLDNGVRVDSDN | -0.167 |
| HMDSDMGQQLKTLLTVGTFMSSKELKAIAQQLGLKKPTDLKEWVELESGTQRIEGKPTKGYWIKMNDINN | 0.159 |
| HMDSGINVWASAEGLTITADKDTTVYVYDIYGRTIHTSEVKAGTSDIAINTKGIVIVKANGYTKKII | -1 |
| HMDSILSIVGGEESYKALLAWAENNISQQELQQLETILKSGNVPAIKRVLVTLMNRFNQAQS | -0.147 |
| HMDSINGEASISRELHGTRFDQAAAILFPEFSRSRLQAWIGAGALTLDGQTARAKDKVTQGQHLVLAAAVE | -0.0684 |
| HMDSINIDEETAKLGPNAPQIIDGIKKWGQGLVAKGVWSDEDFDEFKVFAATSSGINALNKIRKYY | 0.0428 |
| HMDSKYLRIFSTLIDEMEKMSPGEQLQSERELSQRFQVSPMTVRRALHKLSTEGYTSAIPGKGTFVRK | -0.307 |
| HMDSLELADEVGRVSEALQELRPHQREVLELSLVHGRSHQQISEKTGLALGTVKSHARRGLMRVREMLGV | -0.445 |
| HMDSLIEYENERSLRRLINENLSDYERTVWWLYYAGADAAHIAEQTGRSKRSAENAITRVRRKLRALITQS | -1.08 |
| HMDSNISVSEALEMVDKGSVKEIIVEGEKLYITNQDGKQYTSSKEVGVSLIELMKDSGIDPIKSDVNIIVK | 0.214 |
| HMDSRVRHAVLTTLLGKRIVDDLVEKGELPGTPLVLATAPGLDRDLEQLIAQRVVTALLTTV | -0.082 |
| HMDSSALEPIVDQIIADNPKQVEQFQAGKTKVLGFFVGQVMKQTDGTANPKQVNELVAARLKSA | 0.181 |
| HMDSTDSIIHYVRAHRSLEVKNLSFAEARFKKVVELEPNFARGWLGLGEVSILKNNFENASIYLDKALE | -0.463 |
| HMDSTLTNEIYNELYRAITHQELKPGQNLTLTMLKKQFNVSHTPIREALTRLSADGLVTYHPNKGMKVT | -0.274 |
| HMDSTTHALALVRTLPRDQAEAVLLRVVADLDYADVAEIMGRSPGAVRVLVHRGLRRLEQELATRRT | -0.465 |
| HMDSVEYRVITGDDVNFRKGPSTDYASLGKLNKGYKVEYISETNSWSKVKYNGQTGYVYSKYVAQT | 0.0362 |
| HMDSVTVPDISGYSPKAAEDSINNAGLKINEQGLSGSGDGQVVERTSPSAGSKVKKGDSVTVYYSKA | 0.00106 |
| HMDTDVFLMDLRGESRDYAEEVLINNNLEVKVIILPFSKRHYPGKVVEMRPSPFTKVKKGRIITLSVAGN | -3.71 |
| HMDTDWDVSGVTPDQYRLLFSVLGGLAGVKDVGLNPDGLRIIHTPEALPSIEKAFQANGLKLKRNVD | 0.035 |

| Sequence | soluble fraction (log2) |
| --- | --- |
| HMDTETLIDKYQLNASEAAVLRFMDKNRDSLRDLGIRDVARASYVSTATIVNMAKKIGYSGYSELVFAYGS | -1.09 |
| HMDTFSVAIGTKTPDGSSVGEVKTISRDELLLLEDEVAEDPTKEIIFTGGTKDSAQAALDGWIDYNTNLAS | 0.00318 |
| HMDTFYKNLSKKIKTIREKLSFSQEALAKELGISRVAISQIENGDRKISAEEIAKLSRVFNVPTDILLN | 0.187 |
| HMDTHDVQVPQEGQGLRLDLFLTDHIEGSRSFIQTIIKDGHVILNGKKAKANSRLNEGDYVVWSIPKPE | -0.0683 |
| HMDTHRLNYSDFVAEVQAQRVSKVVIDGYTIVGQRTNGETFETVRPALQDPKLVDDLLQNNVIIEGKQPE | 0.0106 |
| HMDTIVHFLSDGRRITVRIKRNARKNIILRPMAADAVSATIPPWLGRRQLSAWLSEREDLLLSVLSRAA | -2.14 |
| HMDTLESYVKRLEKLEGIADSFKGVSKAFALQAGREIRIMVESEKITDEEAVWLSKDIARRIENELEYPG | -0.378 |
| HMDTNKMLIVNSISNGMKRLQELQDPQLAEIQKTFSGLDEQKATSAQLAQINNIINNRIAEIEG | 0.145 |
| HMDTNPKVIITMDGVNVRSSASTGSDILFIAEKGEEYELISESGDFYKILYEGNKEGYVASWLVETSE | 0.0987 |
| HMDTNVKLLSPKQADFFASKLANNQNFSSKFAKVGEDMQPFIERISSELQQDISQVIVYMPYLLESGFKQ | 0.0782 |
| HMDTNVPVPNVNGMTLNQAKAALEAAGFHVAVNWLGEKSDNNSVISYEPNGSAAKGTTITITVIAQPEQDG | 0.0386 |
| HMDTPPGLSPEEQAIIDIITTRGDATINELTASIDIPTPRLMGMLVDMEFRSLIAAIPGGRYRI | -1.16 |
| HMDTRQFWEQWVADEIRTFEHKDRKQLFGWFEGNKPKLGQMKKLGYGDLLTKVQTSWDEIYQQKE | 0.124 |
| HMDTRSSARKALDAVNLLLETYGAKAYQHSYEIAGRRQQFQTPGDFMAFRSRLMAEVATEENAARINA | 0.152 |
| HMDTSKIDYSEFITMLDKGEVESVVLKSDTLTVTLKHGTGMAAQTKTVTLMEDLSELTKRLEKAGVKSFDK | 0.306 |
| HMDTVIAEVTASILNLRRSAGTSSDIIGKLNKGEKVSIIGGSGNWKNVRTSGGITGWVYHEYLSTY | -0.623 |
| HMDTYDSIDSILEERHLSRRKLAQAIGLPPSTFQSMMSRKSGMTLEVLMKIVSYLQVSPDAFW | -2.12 |
| HMDVAWDAIKAKLKEVVDAEDKAHPLNDDQIVKALGESGITIARRTIAKYRDLLGIPPARKRKA | 0.0649 |
| HMDVIGLEAAKSAAVKDAGISSPTFTKATLDRDDGRSLYEIEFISGSTKYEYDIDALTGSVLSKKTRALS | -0.112 |
| HMDVKPWERQEGESAKAFEAFTIYAGLGADRSLRAVAQQLGKSKTLMDRWSSTYSWVARAAEYDADLQRK | -0.575 |
| HMDVLFGNRLRQLLDERNISQAHFADRIGVSRSRMNNYVAQRSEPDYATLIRIANTLDTSIDFLLGKS | -1.93 |
| HMDVLIQEIGKRLRIQRLAMGLTQEELAKRAGISLSTLKLMEQQGKGSLQRLAKVAVVLDLDGDLRGLF | -2.42 |
| HMDVLKVFSHNVRRYRTQLGLSQETVAFRTGLHRTYISAVERGKRSISLDNIQKIADALEVETYLLFI | -1.72 |
| HMDVLNPGDKAVTTASWLNFRTGPGMQNKVASVLARNTTVNIIEKSNEWYKVSLANGSTGYVHGMYLSKIT | -0.0937 |
| HMDVLSQYGSRGEEVGKIQTRLKSWGYFSGEVTGYYGSQTTEAVKRFQQKHGLSATGVADRKTLELIGIS | -0.108 |

| Sequence | soluble fraction (log2) |
| --- | --- |
| HMDVLTARENEVLQLLAKGMSNKEIASVLVITEKTVKAHVSSILSKLNLSDRTQAALYAVKNGI | -0.151 |
| HMDVNMLVTGMLHKGEKSFVRVSFLRGKDWAEGIVPDAKIEKSQGFMEEEVARLEAYLLEQKSMIMEQA | -1.32 |
| HMDVQGFVMDLDKPLDKEPIVEGFELKLEDSLTLVAAVNKDKSINSLFDELSKLGIKVKSMRNPP | -0.0252 |
| HMDVQNLTKKNQEFINIVTHQLLQSGKSDEDIQTILAKTLPEIIEKQKQGIPARSFLGAPTAWAAQFI | 0.133 |
| HMDVRLAKVYMLPANPYLRFIEFDDGTHGKFRAKPGKFGLGSVVKVKREDGDMYTLEGNYDGKDRL | -0.555 |
| HMDVSPVRLIREARGLSQVEVAKAAGLSRAAYQNIEVGKTVPRASTMVNIARALGVSMDDLLAPV | -0.251 |
| HMDVSVPDVTGTRLDRAQSLLEAQGLTLGKVEEFFHATEPAGIVYDQEPRPGTRVDEGTAISVSVSKGPEA | 0.0552 |
| HMDWFDELKVSTDDSGRVTAPEESEFMFQTSNEKIFAGGDMVRGSDLVVTAIWEGRQAAEGIMDYLD | -0.16 |
| HMDWPDDETIARIYALIKSDISSQARKVMELRFSEGMPFARIAAAMGISETAVYRHLSHALTVIRQKLN | -2.06 |
| HMDWREMTAWMAELLKRRTGDDVETWNARVRESGAHDEASLRAWLTEQGVTGYAQTLLVMERFGYPDFF | -1.22 |
| HMDYADISYKIFMNHIKNGQVERVELSGDPRIMGKLKDGTYFVTDNPRTENFKEFLLLNNVQVIETN | 0.43 |
| HMDYEVPEELQQKFEEFPRLKEAFYQLTPGRQHQYLYYFSQAKRSQTRYNRIDKYMNAILQGKGMK | -0.991 |
| HMDYINALTTAGITDAKVIVTAPFDVSGTAALTGIYKAYEDITGSSLNEIAKAVGVEELITTGNLA | 0.0392 |
| HMDYKAELDNIIRDHLDMEGPLLPVLHAVMARFSYIPKDAIPIIARKLNLSSAEVSGVISFYHDFKKEK | -0.561 |
| HMDYKYYIVKEPMVVKNLELPVGTRIVYFNTSLFGDSESSRPLKEKNIYQIFFPDDKPLIWGGVPVSLIER | -1.97 |
| HMDYNLTKNQKIVFNLLQNSGEPLKAYTILESLKREGLKSPLQVYRALDKLVELGIIHKIESQNSFI | -0.45 |
| HMDYNMEEWSLTADQLKSGDTILILNLGKTATLLESTRGKKNVRVRMGNIKTIVETSSIRGNPHQ | -0.878 |
| HMDYPFQYFNYSHLRILGVPAQLIKAVRKAPTLDAIEQLSGLSEKTKLWLLELATEPKLEDVLFDPGR | -1.44 |
| HMDYRSMSGLQKAALLIMSVGEETAAKLFQLMHDDEIREISQTMANLGTVNATVIERLFVEFADAISS | -0.966 |
| HMDYVKTLGETINVRVAASTDADIYKLLPGGEILNRVGYNEEWTKVMVDGSTFYVYSEYVIQTEPPA | -1.37 |
| HMDYYSILGVDRNATGEDIKKAFKKKAMKYHPDRNPDNKESERKFKEAKEAYDTLSNPQKKSMYDQFGT | 0.0734 |
| HMEAEDLRDWVGARGIAYTALRPAGIAVVNGRRVDVVSEGAFVNRDDPVEVVRVEGRRIVVKP | -0.143 |
| HMEAGTEYVERAADYIRSHFQEDLTVSKLALYVGLNRSYLTTVFQNTLHVSPQQFLMRFRMERAAQLLD | 0.0719 |
| HMEAGTVTVTHAAVYIRSGPGVSYPIAGKAAKNDTYTVLQKDGDWFQIRLPQGNTGWIAGWLVETGT | -0.635 |
| HMEAISIYPNPTDNELHLSTSVQEVRIYNMYGIEVTRAANTDRLAVSHLPKGVYLVHADGAVLKMIK | -1.26 |
